No end group written: not given here.
What was measured:
Format in all cases: cell-based
human PTH-1 receptors [1] = biological target: T1, human PTH-1 receptors (Homo sapiens, UniProt Q03431); assay: PLC activation (IP3 formation) in HKRK B7 cells; conditions: HKRK B7 cells; up to 1000 nM or 10 μM
T1 construct: expressed in transfected cells
T1 sequence (Q03431 27-593): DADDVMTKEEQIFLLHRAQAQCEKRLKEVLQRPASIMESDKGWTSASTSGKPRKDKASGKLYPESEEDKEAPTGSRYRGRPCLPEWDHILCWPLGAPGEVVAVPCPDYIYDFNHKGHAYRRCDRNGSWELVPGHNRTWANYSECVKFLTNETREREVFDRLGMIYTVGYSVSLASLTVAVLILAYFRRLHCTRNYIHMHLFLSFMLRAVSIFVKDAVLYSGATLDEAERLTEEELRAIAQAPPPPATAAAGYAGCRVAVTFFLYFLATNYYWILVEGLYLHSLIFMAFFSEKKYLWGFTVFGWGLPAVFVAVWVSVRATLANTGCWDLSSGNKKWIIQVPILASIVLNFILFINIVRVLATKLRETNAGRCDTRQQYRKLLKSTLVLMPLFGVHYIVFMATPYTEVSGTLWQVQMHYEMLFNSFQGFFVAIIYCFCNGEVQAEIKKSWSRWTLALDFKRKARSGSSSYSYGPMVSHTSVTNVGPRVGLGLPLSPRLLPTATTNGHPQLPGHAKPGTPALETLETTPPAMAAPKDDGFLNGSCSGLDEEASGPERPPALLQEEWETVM
Experimental: (§1) HKRK B7 or EW5 cells (32), subclones of LLC-PKI renal epithelial cells that stably express human or rat PTH-1 receptors (950,000 and 320,000 receptors/cell, respectively), were maintained under 5% CO2 in air in Dulbecco's modified essential medium containing 7% fetal bovine serum (FBS) and 1% penicillin/streptomycin (GIBCO-BRL, Grand Island, N.Y.). HEK-293 and COS-7 cells were cultured similarly, except that 10% FBS was used in the medium. Cells were seeded into 24-well plates two days before assay at a density of 2-2.5×10^5 cells/well (HKRK B7 or EW 5 cells) or 6×10^5 cells/well (in 6-well plates) (HEK-293 cells). In experiments involving HEK-293 cells, DNA transfections were performed 24 hr after plating and inositol radiolabel was added 24 hr thereafter (see below). COS-7 cell transfections were performed as previously described (Gardella, T. J., et al., Endocrinology 132(5):2024-2030 (1993))
PLC was activated by PTH agonists in the presence of 30 mM LiCl at 37° C. for 30 min after 16 hr of labeling with [^3H]myo-inositol (3 uCi/ml) in serum-free medium containing 0.1% bovine serum albumin. The reactions were stopped by rapid aspiration and addition of cold 5% TCA. Water-soluble radiolabeled inositol trisphosphate (IP3) was isolated after ether extraction by ion-exchange chromatography (Guo, J., et al., Endocrinology 136(9):3884-3891 (1995)). In experiments involving HEK 293 cells, cells previously transfected with human PTHR cDNA (in the pcDNA1 expression vector HKRK) using Lipofectamine (Gibco BRL) were labeled with [^3H]myo-inositol and assayed as described above, except that total water-soluble [^3H]inositol polyphosphates were collected as a single fraction from the ion-exchange columns.

human PTH-1 receptors [2] = biological target: T1, human PTH-1 receptors; assay: PLC activation in COS-7 cells expressing human PTH-1 receptors; conditions: up to 1000 nM
Experimental: as §1
(§2) PLC was activated by PTH agonists in the presence of 30 mM LiCl at 37° C. for 30 min after 16 hr of labeling with [^3H]myo-inositol (3 uCi/ml) in serum-free medium containing 0.1% bovine serum albumin. The reactions were stopped by rapid aspiration and addition of cold 5% TCA. Water-soluble radiolabeled inositol trisphosphate (IP3) was isolated after ether extraction by ion-exchange chromatography (Guo, J., et al., Endocrinology 136(9):3884-3891 (1995)). […]

rat PTH-1 receptors = biological target: T2, rat PTH-1 receptors (Rattus norvegicus, UniProt P25961); assay: PLC activation in COS-7 cells expressing rat PTH-1 receptors; conditions: up to 1000 nM
T2 construct: expressed in transfected cells
T2 sequence (P25961 27-591): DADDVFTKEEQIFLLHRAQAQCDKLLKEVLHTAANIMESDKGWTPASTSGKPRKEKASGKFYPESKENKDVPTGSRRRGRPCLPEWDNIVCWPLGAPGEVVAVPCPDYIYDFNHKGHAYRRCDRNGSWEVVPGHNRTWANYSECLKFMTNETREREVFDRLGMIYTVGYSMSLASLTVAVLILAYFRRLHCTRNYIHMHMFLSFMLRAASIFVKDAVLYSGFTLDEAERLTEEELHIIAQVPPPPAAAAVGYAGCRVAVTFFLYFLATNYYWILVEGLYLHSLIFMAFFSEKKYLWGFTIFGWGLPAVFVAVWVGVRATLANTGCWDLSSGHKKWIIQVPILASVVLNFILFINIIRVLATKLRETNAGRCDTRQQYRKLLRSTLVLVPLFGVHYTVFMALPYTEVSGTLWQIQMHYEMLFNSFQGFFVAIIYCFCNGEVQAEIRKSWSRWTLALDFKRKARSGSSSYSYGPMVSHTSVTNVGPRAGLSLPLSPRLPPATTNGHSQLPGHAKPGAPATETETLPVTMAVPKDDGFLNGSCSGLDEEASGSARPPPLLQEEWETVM
Experimental: as §1, §2

Human PTH-(3-34): N-truncated human PTH peptide lacking Ser^1-Val^2 (SEIQLMHNLGKHLNSMERVEWLRKKLQDVHNF-NH2; UniProt P01270 34-65, looked up, fragment)
did not activate PLC: PLC activation (IP3 formation), result in words (human PTH-1 receptors [1]) | PLC activation, result in words (human PTH-1 receptors [2]) | PLC activation, result in words (rat PTH-1 receptors)

From patent US7479478B2, “Human parathyroid hormone modifications, preparation and use” (The General Hospital Corporation, priority 1998, dated 2009)
